Biological target: the molecule itself
Test: native gel or EMSA + SEC + AUC; free TCF4 and TCF4 with E-box dsDNA; buffer S (20 mM Tris-HCl, 150 mM NaCl, 2 mM TCEP, pH 7.5); SV-AUC at 20 °C, 2.5, 5.0 and 7.5 µM dTCF4, molecular weight fixed at that of the dimer (96.5 kDa); SEC on Superdex 200 Increase 10/300; native PAGE on 5% gel in 0.5 x TBE at 4 °C

B1: Transcription factor 4 (TCF4), human isoform I- (natural protein, UniProt P15884-16 1-451, looked up)
chain: MQDGHHSSDPWSSSSGMNQPGYAGMLGNSSHIPQSSSYCSLHPHERLSYPSHSSADINSSLPPMSTFHRSGTNHYSTSSCTPPANGTDSIMANRGSGAAGSSQTGDALGKALASIYSPDHTNNSFSSNPSTPVGSPPSLSAGTAVWSRNGGQASSSPNYEGPLHSLQSRIEDRLERLDDAIHVLRNHAVGPSTAMPGGHGDMHGIIGPSHNGAMGGLGSGYGTGLLSANRHSLMVGTHREDGVALRGSHSLLPNQVPVPQLPVQSATSPDLNPPQDPYRGMPPGLQGQSVSSGSSEIKSDDEGDENLQDTKSSEDKKLDDDKKDIKSITSNNDDEDLTPEQKAEREKERRMANNARERLRVRDINEAFKELGRMVQLHLKSDKPQTKLLILHQAVAVILSLEQQVRERNLNPKAACLKRREEEKVSSEPPPLSLAGPHPGMGDASNHMGQM
notes: Transcription factor 4 (TCF4), human, isoform I- (UniProt P15884-16), full length; lacks amino acids 1-216 of the canonical isoform B- (P15884-1); bHLH domain at residues 348-401; dimer 96.5 kDa; numbers count on: isoform I- (P15884-16); cDNA synthesised and codon-optimised, cloned into pET-SUMO; also called TCF4 I-; dTCF4 (dimeric TCF4); source: E. coli ArcticExpress, purified (Ni-NTA with 6 M …)
  binding result: binds
